# According to patent publication US20140193401A1 (published 2014):
# Substitutions are numbered along the chain they refer to.
# T1: PTx-S1-220 (truncated PTx-S1, residues 1-220, strain Tohama I, variant B) (Bordetella pertussis, UniProt P04977 35-254)
# T1 sequence: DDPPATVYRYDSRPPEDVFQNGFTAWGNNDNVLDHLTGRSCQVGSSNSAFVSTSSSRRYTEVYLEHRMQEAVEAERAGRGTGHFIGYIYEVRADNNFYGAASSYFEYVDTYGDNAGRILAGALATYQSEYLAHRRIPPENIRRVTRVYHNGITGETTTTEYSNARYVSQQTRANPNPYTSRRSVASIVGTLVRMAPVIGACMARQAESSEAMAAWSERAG
# T2: PTx-S1-220 Y8A (Bordetella pertussis, UniProt P04977 35-254)
# T2 chain: T1 sequence with Y8A
# T3: PTx-S1-220 N176A (Bordetella pertussis, UniProt P04977 35-254)
# T3 chain: T1 sequence with N176A
# T4: PTx-S1-220 E210A (Bordetella pertussis, UniProt P04977 35-254)
# T4 chain: T1 sequence with E210A
# T5: PTx-S1-220 E16A (Bordetella pertussis, UniProt P04977 35-254)
# T5 chain: T1 sequence with E16A
# T6: PTx-S1-220 T158A (Bordetella pertussis, UniProt P04977 35-254)
# T6 chain: T1 sequence with T158A
# T7: PTx-S1-220 Y166A (Bordetella pertussis, UniProt P04977 35-254)
# T7 chain: T1 sequence with Y166A
# T8: PTx-S1-220 N150A (Bordetella pertussis, UniProt P04977 35-254)
# T8 chain: T1 sequence with N150A
# B1: murine monoclonal antibody 1B7 (antibody, V domains shown)
# VH: EVQLQQSGSELVRPGASVKLSCKASGYKFTSYWMHWVKQRPGQGLEWIGNIFPGSGSTNYDEKFNSKATLTVDTSSNTAYMQLSSLTSEDSAVYYCTRWLSGAYFDYWGQGTTLTVSS
# VL: DIQMTQSPALMSASPGEKVTMTCSASSSVSFMYWYQQKPRSSPKPWIYLTSNLPSGVPARFSGSGSGTSYSLTISSMEAEDAATYYCQQWSSHPPTFGSGTKLEIKR
# notes: also called mAb 1B7; 1B7 mAb
# How the values were obtained:
# [1] = biological target: T1, PTx-S1-220 (truncated PTx-S1, residues …)
# [2] = biological target: T9, pertussis toxin holotoxin (Bordetella pertussis, UniProt P04977 35-269; P04978 31-226; P04979 32-227; P0A3R5 43-152; P04981 36-133); test: cell-based or functional assay
# [3] = biological target: pertussis toxin subunit S2 (Bordetella pertussis, UniProt P04978 28-226); test: Western blot of B-oligomer and PTx
# [4] = biological target: pertussis toxin subunit S3 (Bordetella pertussis, UniProt P04979 29-227); test: Western blot of B-oligomer and PTx
# [5] = biological target: pertussis toxin subunit S4 (Bordetella pertussis, UniProt P0A3R5 43-152); test: Western blot of B-oligomer and PTx
# [6] = biological target: pertussis toxin subunit S5 (Bordetella pertussis, UniProt P04981 35-133); test: Western blot of B-oligomer and PTx
# PTx-S1-220 Y8A = biological target: T2, PTx-S1-220 Y8A; test: Western blot with mAb 1B7; paragraph 150 says 1B7 was unable to bind Y8A
# PTx-S1-220 N176A = biological target: T3, PTx-S1-220 N176A; test: SPR (BIAcore 3000), mAb 1B7 immobilised on CM5 chip, toxin injected
# PTx-S1-220 E210A = biological target: T4, PTx-S1-220 E210A; test: as above
# PTx-S1-220 E16A = biological target: T5, PTx-S1-220 E16A; test: as above
# PTx-S1-220 T158A = biological target: T6, PTx-S1-220 T158A; test: as above
# PTx-S1-220 Y166A = biological target: T7, PTx-S1-220 Y166A; test: as above
# PTx-S1-220 N150A = biological target: T8, PTx-S1-220 N150A; test: as above
# [7] = biological target: T9, pertussis toxin holotoxin; test: competition ELISA (Friguet), 5 nM antibody with PT in solution, coated PT
binder,measurement,setting,value
B1,koff,[1],0.0019 s⁻¹
same,"In Vitro Neutralization (nM), minimum protective concentration, CHO clustering assay",[2],5.2 nM
same,binding result,[3],no binding
same,binding result,[4],no binding
same,binding result,[5],no binding
same,binding result,[6],no binding
same,binding result,PTx-S1-220 Y8A,no binding
same,koff,PTx-S1-220 N176A,0.0011 s⁻¹
same,koff,PTx-S1-220 E210A,0.0016 s⁻¹
same,koff,PTx-S1-220 E16A,0.0016 s⁻¹
same,koff,PTx-S1-220 T158A,0.0013 s⁻¹
same,koff,PTx-S1-220 Y166A,0.0014 s⁻¹
same,koff,PTx-S1-220 N150A,0.008 s⁻¹
same,Kd,[7],1.1 nM
